According to patent publication US20260258115A1 (MAPP BIOPHARMACEUTICAL, published 2026):

Columns and labels:
RSV F on RSV-A2 virus = RSV F on RSV-A2 virus (Respiratory Syncytial Virus (RSV-A2), UniProt P03420 26-574); test: cell-based or functional assay
[1] = target: RSV postfusion F (postF), F ΔFP (Respiratory Syncytial Virus, UniProt P03420 26-513); test: BLI, IgG on anti-human IgG sensor
[2] = target: RSV prefusion F (preF), DS-Cav1 (Respiratory Syncytial Virus, UniProt P03420 26-513); test: BLI, IgG on anti-human IgG sensor, 100 nM antigen, 1:1 fit
[3] = target: RSV postfusion F (postF), F ΔFP trimer, subtype A (Respiratory Syncytial Virus, subtype A, UniProt P03420 26-513); test: BLI, IgG (Table 9A)
[4] = target: RSV F on RSV subtype A virus (RSV-A2) (Respiratory Syncytial Virus, subtype A, …, UniProt P03420 26-574); test: cell-based or functional assay
[5] = target: RSV prefusion F (preF), DS-Cav1 stabilized trimer, subtype A (Respiratory Syncytial Virus, subtype A, UniProt P03420 26-513); test: BLI, apparent IgG KD (Table 9A)

Row | Binder | Neutralization IC50 (RSV subtype A) (RSV F on RSV-A2 virus) [µg/mL] | binding result [1] | Kd [2] [nM] | binding result [3] | Neutralization - RSV A2 IC50 (pM) [4] [pM] | neut IC50 (ug/ml) subtype A (wright) [4] [µg/mL] | Kd [5] [nM]
1 | ADI-43645 (antibody, V domains shown, also called Ab 826; Antibody Number 826) VH: QVQLVQSGAEVKKPGSSVKVSCKASGGTFSSYAISWVRQAPGQGLEWMGGIIPIFGTANYAQKFQGRVTITADESTSTAYMELSSLRSEDTAVYYCARGWRGGGMTGSYYYYGMDVWGQGTTVTVSS VL: DIQVTQTPSTLSASVGDRVTITCRASQSISSWLAWYQQKPGKAPKLLIYKASSLESGVPSRFSGSGSGTEFTLTISSLQPDDFATYYCQQHRGTFGQGTKVDIK | > 25 | no binding | 8.7 |  |  |  | 
2 | ADI-41476 (antibody, V domains shown) VH: EVQLLESGGGLVQPGGSLRLSCATSGFRFTRYWMHWVRQAPGKGLEWVARINFDGTTTNYADSVKGRFTVSRDNAKNTLYLQINSLRAEDTAVYFCARDQTFLEWLPFESWGQGTLVTVSS VL: QTVVTQEPSFSVSPGGTVTLTCGLTSGSVSTSYYPSWYQQTPGQAPRTLIYNTKTRFSGVPDRFSGSILGNKAALTITGAQADDESDYYCVLYMSGGMVFGGGTKLTVL | > 25 | no binding | 3.86 |  |  |  | 
3 | ADI-41208 (antibody, V domains shown) VH: QVQLVESGGDLVKPGGSLRLSCAASGFTLSGHYMSWIRQPPGKGLEWVSSISGGSTYTNYADSVKGRFTISRDNAENSLYLQMNSLRAEDTAVYYCARLAYSDYGPFYFDLWGRGTLVTVSS VL: QSVLTQPPSVSGAPGQRVTISCTGSSSNIGAGYDVHWYQQLTGTAPKLLIFDNNNRPSGVPDRFSGSKSGTSASLAITGLQAEDEADYYCQSYDSRLSAPYVFGTGTKLTVL |  |  |  | no binding | 310 | 0.077 | 0.48
4 | ADI-41259 (antibody, V domains shown) VH: QVQLVESGGRLVKPGGSLRLSCAASGFTFSDFYMSWIRQAPGKGLEWVSYISSSGDDPNYADSVKGRFTISRDNSKNSLYLQMNSLRAEDTAVYYCARDEVGWNNLDYYFGMDVWGQGTTVTVSS VL: DIVMTQSPLSLPVTLGQPASISCRSSQSLVHSDGNTYLSWFHQRPGQSPRRLIYKVSNRDSGVPNRFSGGGSGTDFTLKISRVEAEDVGFFYCMQGTHWQKTFGQGTKVEIK |  |  |  | no binding | 122 | 0.015 | 0.34
5 | ADI-43644 (antibody, V domains shown) VH: not shown VL: DIVLTQSPATLSLSPGERATLSCRASQSVSSYLAWYQQKPGQAPRLLIYDASNRATGIPARFSGSGSGTDFTLTISSLEPEDFAVYYCQQRSNWPPGFTFGGGTKVEIK | > 25 | no binding | 29.3 |  |  |  | 
6 | ADI-41523 (antibody, V domains shown) VH: QVQLVQSGAEVKKPGESLRISCKGSGDTFSNYWIGWVRQMPGKGLEWMGIIYPGDSDTRYSPSFQGQVTFSADKSISTAYLQWSSLKASDTAMYYCVRQVGGVVVTDTDNYYYGMDVWGQGTTVTVSS VL: DIRLTQSPSSLSASVGDRVTITCRASQSIRSYLNWYQQKPGKAPKLLIYSASSLQSGVPSRFSGSGSGTDFTLTISSLQPEDFATYYCQQSHSTPLTFGPGTKVDIK | > 25 | no binding | 2.91 |  |  |  | 
7 | ADI-41302 (antibody, V domains shown) VH: QVQLVESGGGVVQPGRSLRLSCAASGFTFSSYAMQWVRQAPGKGLEWVAVMTNDGDDKYYADSVRGRFTISRDNSKNTLYLQMNNLRPEDTAVYYCARDLFEWWELLGYCYAMDVWGQGTTVTVSS VL: QSVLTQPPSASGSPGQSVTISCTGTSSDVGAYNYVSWYQQHPGKAPKLIIYEVYKRPSGVPDRFFGSKSGNTASLTVSGLQAEDEADYYCSSYAGSNTLGVFGGGTKVTVL |  |  |  | no binding | 133 | 0.006 | 0.65
8 | ADI-41489 (antibody, V domains shown, also called Ab 770; Antibody Number 770) VH: EVQLVESGGGVVQPGRSLRLSCAASGFNFHNYAFHWVRQAPGKGLDWVAVTSYDGSSAFYADSVKGRFTISRDNSKKILYLQMTSLRAEDTALYYCARGSSSWSGDYFDYWGQGILVTVSS VL: DIVMTQSPVTLSVSPGERATLSCRASQSVGSNLAWYQQKHGQTPRLLIYDASTRATSIPARFSGSGSGTEFTLTISSLQSEDFAVYYCQQYNKWPSYTFGQGTKVEIK | > 25 | no binding | 88 |  |  |  | 
9 | ADI-41491 (antibody, V domains shown) VH: EVQLLESGGGLVQPGGSLRLSCAASGFTFSSYSMNWVRQAPGKGLEWVSYMSSDRSAIYYSDSVKDRFTISRDNAKNSLYLQMHSLRAEDTAVYYCARRYCSSTSCYRGLGYYYGMDVWGQGTTVTVSS VL: SYELTQPPSVSVAPGQTARITCGGSNIGNKDVHWYQQKPGQAPVLVVYDDSDRPSGIPERFAGSNSGNTATLTISRVEAGDEADYYCQVWHSAGDHVVFGGGTKLTVL | > 25 | no binding | 0.439 |  |  |  | 
10 | ADI-41256 (antibody, V domains shown, also called Ab 578; Antibody Number 578) VH: QVQLVQSGAEVKSPGSSATVSCKASGGTFGSYGISWVRQAPGQGLEWIGAIMPMFGTTNYAQKFQGRVTMTADESTSTVYMDVSSLRPDDTAVYYCVRDVFYDILTGYYDADYYHHYMDVWGKGTTVTVSS VL: DIVMTQSPLSLPVTLGQPASISCRSGQSLVHSDGNTYLNWFQQRPGQSPRRLIYKVSNRGSGVPDRFSGSGSGTDFTLKISRVEAEDVGVYFCMQGTHWPRTFGQGTKVDIK |  |  |  | no binding | 85.8 | 0.019 | 0.35
11 | ADI-41501 (antibody, V domains shown, also called Ab 780; Antibody Number 780) VH: QVQLVQSGAEVKKPGSSVKVSCKASGGIFSDFAISWVRQAPGQGLEWMGGIITIIGTPEYAQKFQGRVRITADESTTTVFMELSRLTSEDTAVYYCARDSRYGSGWYWDHWGQGTLVTVSS VL: not shown | > 25 | no binding | 3.21 |  |  |  | 
12 | ADI-41457 (antibody, V domains shown, also called Ab 741; Antibody Number 741) VH: EVQLVESGGGLVRPGGSLRVSCAASGFTFIRYDMHWVRQAPGKGLEWVSGIGTAGDTYYAASVQGRFTISRENAKNSLYLQMSNLRPGDTAVYYCAGSMAATGIDQWGQGTLVTVSS VL: EIVMTQSPLTLPVTPGEPASISCRSSQSLLHSNGFTYLDWFLQKPGQSPQLLIFLGSNRASGVPDRFSGSGSGTDFTLKISRVEAEDVGIYYCMQALQTPYTFGQGTKVEIK | > 25 | no binding | 3.33 |  |  |  | 
13 | ADI-41517 (antibody, V domains shown) VH: QVQLVQSGGGLVQPGGSLRLACAASGFTLSGYAMNWVRQAPGKGLEWVSSISGSGGSTYYADSVKGRFTTSRDNSKNTVFLHMNSLRAEDTAIYYCATVPWETGPFDHWGQGTLVTVSS VL: QSVLTQPPSVSGAPGQRVTISCTGSSSNIGAGYAVHWYQQLPGTAPKLLIHGTTNRPSGVPDRFSGSKSGTSASLAITGLQAEDEADYYCQSYDSRLSGYVFGTGTKLTVL | 0.02 | no binding | 0.501 |  |  |  | 
14 | ADI-41516 (antibody, V domains shown) VH: EVQLLESGPRLVKPSETLSLTCIVSGGFISYDYWSWIRQPAGKGLEWIGRIYAGGIPKYNPSLKSRVTMSLDMSNNQFSLRLKSVTAADSAVYYCARAEPCSGDCFLGENPFDSWGQGTLVTVSS VL: QSVLTQPPSASGTPGQRVTISCSGSSSSIGSNYVYWYQQLPGTAPKLLIHKDNERPSGVPDRFSGSKSGTSASLAISGLRSEDEGDYSCAAWDDSLSGWVFGGGTKLTVL | 0.08 | no binding | 0.414 |  |  |  | 
15 | ADI-41521 (antibody, V domains shown) VH: EVQLVESGGGLVQPGRSLRLSCAASGFTFDDFAMDWVRQVPGKGLEWVSGISWNGVSKDYAGSVKGRFTISRDNAKNSLYLQMNSLRAEDTALYFCAKARRDVYNWGDAFDIWGQGTMVTVSS VL: DIRLTQSPGTLSLSPGERATLSCRASQPLNSNYLAWYRQKPGQAPRLLIFDASSRATGVPDRISGSGSGTDFTLTVSRLEPEDIAVYYCQQYASSPWTFGLGTKVEIK | > 25 | no binding | 1.68 |  |  |  | 
16 | ADI-41274 (antibody, V domains shown, also called Ab 592; Antibody Number 592) VH: EVQLVESGGGLVKPGGSLRLSCAASGFSFSSYAMNWVRQAPGKGLQWVSSISAGSSYIDYADSVKGRFTISRDNAENSLFLQMNSLRVEDTAVYYCARVGSYTHGYEFDYWGQGTLVTVSS VL: QPVLTQPPSVSGAPGQRVTISCTGSNSNIGAGYDVHWYQQLPGTAPKLLIYASTIRPSGVPDRFSGSKSGTSASLAITGLQAEDEADYYCQSYDRNLSVVFGGGTKVTVL |  |  |  | no binding | 26.6 | 0.109 | 0.48
17 | ADI-41524 (antibody, V domains shown) VH: EVQLVESGGGLVQPGRSLRLSCTGSGFTFGDYAISWFRQAPGKGLEWVGFIRSKPYGGTTEYAASVKGTFTISRDDSKSIAYLQMNSLKTGDTAVYFCTRGIWGITMIVPWSDPWGQGTLVTVSS VL: DIVMTQTPLSLPVTPGEPASISCRSSQSLLHSNGFNYLAWYLQKPGQSPQLLIYLNSNRASGVPDRFSGSGSGTDFTLKISRVEAEDVGVYYCMQALQTPLTFGPGTKLEIK | > 25 | no binding | 3.18 |  |  |  | 
